In paper PMC12780157 (Nature Communications, 2025) one finds Kd data, which are given here for 2 compounds.

Like-named read-outs stand apart in the source and are kept apart here.

Test [1] addresses recombinant Tubulin protein (cat# CSK-T240-B-T) (UniProt P02550). As to the kind of experiment: ITC.
The target is the same in test [2]. The test is described as follows: ITC. This is another data set of the same source.
Test [3] has the same target. The test is described as follows: ITC. The source holds these as a separate data set.
Test [4] addresses β-tubulin (αβ-tubulin heterodimer). The test is described as follows: X-ray co-crystal structure at […] Å. The class given is binding.

Take “recombinant VASH2 protein (cat# YHK84701) (from UniProt Q86V25 1-355) (enzyme)”: the Kd is 1.53 µM in test [1], 1.49 µM in test [2] and 0.52 µM in test [3].

Compound `COc1c(Cl)cc([C@@H]2c3cc4c(cc3C[C@H]3C(=O)NC(=O)N23)OCCO4)cc1Cl` [KY216, (6R,10aS)-6-(3,5-dichloro-4-methoxyphenyl)-2,3,10a,11-tetrahydro-[1,4]dioxino[2,3-g]imidazo[1,5-b]isoquinoline-8,10(6H,9H)-dione] gave a Kd in test [4] of 0.15 ± 0.01 µM.
